Reference: the Human Domainome abundance scans (Beltran et al. 2025)
± gives the uncertainty stated by the source.

B1: Transcription elongation regulator 1-like protein, residues 448 to 504; numbered along this chain, Q5VWI1 (parent)
chain: LPLEERVTHFRDMLLERGVSAFSTWEKELHKIVFDPRYLLLNSEERKQIFEQFVKTR

Variants of: B1
Assay: abundance fitness (aPCA) (normalised: wild type 0, dead -1); higher = more abundant; growth selection in yeast, the domain comes from the species named
Settings: Homo sapiens

In order of falling abundance fitness:
1. P2D  1.26 ± 0.14
2. P2T  1.24 ± 0.085
3. P2N  1.18 ± 0.37
4. P2S  1.09 ± 0.14
5. P2K  0.925 ± 0.075
6. L29Y  0.907 ± 0.18
7. Q48N  0.751 ± 0.21
8. I49Q  0.437 ± 0.1
9. L1F  0.408 ± 0.27
10. L15E  0.351 ± 0.26
11. F22D  0.292 ± 0.082
12. H9L  0.279 ± 0.11
13. E44D  0.27 ± 0.17
14. F34T  0.245 ± 0.17
15. E16Q  0.176 ± 0.12
16. F34H  0.156 ± 0.35
17. E26C  0.153 ± 0.33
18. F34G  0.11 ± 0.074
19. F34R  0.099 ± 0.071
20. G18T  0.098 ± 0.24
21. E44K  0.094 ± 0.28
22. I32V  0.086 ± 0.095
23. F50Y  0.082 ± 0.22
24. K55M  0.06 ± 0.19
25. V7A  0.039 ± 0.16
26. T56A  0.035 ± 0.16
27. I49L  0.035 ± 0.17
28. N42D  0.035 ± 0.16
29. Q48E  0.006 ± 0.25
30. E5R  -0.01 ± 0.17
31. F22Y  -0.031 ± 0.088
32. P2V  -0.031 ± 0.34
33. K27C  -0.032 ± 0.36
34. Q48A  -0.036 ± 0.16
35. K55S  -0.04 ± 0.11
36. R46A  -0.057 ± 0.12
37. E5I  -0.06 ± 0.16
38. F34K  -0.063 ± 0.34
39. S43L  -0.065 ± 0.094
40. E51H  -0.077 ± 0.1
41. F34C  -0.104 ± 0.1
42. N42K  -0.109 ± 0.13
43. L3W  -0.116 ± 0.11
44. L3D  -0.135 ± 0.23
45. E4L  -0.151 ± 0.2
46. L15N  -0.154 ± 0.37
47. F50W  -0.17 ± 0.084
48. D12I  -0.177 ± 0.33
49. K55Q  -0.19 ± 0.1
50. Q48I  -0.213 ± 0.11
51. D12Q  -0.223 ± 0.24
52. Q48G  -0.237 ± 0.084
53. E45I  -0.242 ± 0.46
54. A21Q  -0.245 ± 0.34
55. L14P  -0.251 ± 0.42
56. E5M  -0.254 ± 0.45
57. M13P  -0.257 ± 0.39
58. K55N  -0.267 ± 0.2
59. H9V  -0.274 ± 0.19
60. H30E  -0.276 ± 0.29
61. K55G  -0.278 ± 0.088
62. E51K  -0.278 ± 0.085
63. E51F  -0.288 ± 0.083
64. T8F  -0.291 ± 0.31
65. E26P  -0.294 ± 0.39
66. V7H  -0.303 ± 0.22
67. G18R  -0.316 ± 0.11
68. V54D  -0.32 ± 0.32
69. G18S  -0.33 ± 0.14
70. F34W  -0.343 ± 0.2
71. V54R  -0.348 ± 0.084
72. L15H  -0.352 ± 0.37
73. E26Q  -0.355 ± 0.46
74. E5Q  -0.357 ± 0.31
75. T24H  -0.361 ± 0.38
76. K27G  -0.366 ± 0.15
77. E4A  -0.368 ± 0.33
78. S20W  -0.371 ± 0.18
79. R46G  -0.39 ± 0.2
80. T8M  -0.396 ± 0.43
81. V54K  -0.396 ± 0.49
82. L15W  -0.406 ± 0.15
83. L29A  -0.409 ± 0.17
84. P36E  -0.409 ± 0.29
85. E51M  -0.413 ± 0.093
86. I32F  -0.433 ± 0.47
87. Q52L  -0.435 ± 0.087
88. N42C  -0.437 ± 0.2
89. F22V  -0.439 ± 0.12
90. H30I  -0.439 ± 0.25
91. T56R  -0.456 ± 0.096
92. L40E  -0.466 ± 0.13
93. L14D  -0.484 ± 0.22
94. I32C  -0.484 ± 0.39
95. R6K  -0.485 ± 0.15
96. I32L  -0.494 ± 0.13
97. K31M  -0.496 ± 0.17
98. Y38L  -0.5 ± 0.15
99. K47V  -0.501 ± 0.17
100. T24Q  -0.503 ± 0.46
101. E45S  -0.514 ± 0.21
102. P36G  -0.514 ± 0.087
103. E45T  -0.515 ± 0.21
104. Q52V  -0.526 ± 0.09
105. F10W  -0.536 ± 0.27
106. H30L  -0.544 ± 0.26
107. G18L  -0.545 ± 0.15
108. S20E  -0.563 ± 0.23
109. R37V  -0.564 ± 0.13
110. E16F  -0.568 ± 0.24
111. V7C  -0.568 ± 0.2
112. T24P  -0.571 ± 0.21
113. E28R  -0.576 ± 0.13
114. D12C  -0.578 ± 0.45
115. K47E  -0.58 ± 0.4
116. L41F  -0.583 ± 0.1
117. H30S  -0.585 ± 0.26
118. A21F  -0.593 ± 0.23
119. K47W  -0.602 ± 0.37
120. H30V  -0.608 ± 0.21
121. K27H  -0.612 ± 0.23
122. L41R  -0.616 ± 0.086
123. L40S  -0.619 ± 0.25
124. R11V  -0.626 ± 0.3
125. K47S  -0.627 ± 0.19
126. V54G  -0.632 ± 0.11
127. E51I  -0.632 ± 0.092
128. E28Q  -0.641 ± 0.4
129. E26G  -0.643 ± 0.16
130. E4M  -0.646 ± 0.45
131. W25V  -0.668 ± 0.11
132. K27S  -0.679 ± 0.24
133. N42M  -0.687 ± 0.33
134. F50E  -0.69 ± 0.4
135. R6V  -0.701 ± 0.18
136. K27T  -0.711 ± 0.35
137. L1W  -0.717 ± 0.16
138. P36V  -0.717 ± 0.13
139. N42W  -0.733 ± 0.35
140. L41C  -0.734 ± 0.12
141. M13S  -0.743 ± 0.29
142. G18W  -0.746 ± 0.25
143. F53L  -0.747 ± 0.19
144. F50G  -0.759 ± 0.22
145. V33G  -0.764 ± 0.15
146. K47P  -0.783 ± 0.34
147. F22I  -0.797 ± 0.33
148. I32T  -0.81 ± 0.43
149. Y38A  -0.815 ± 0.32
150. R46T  -0.815 ± 0.24
151. R6S  -0.832 ± 0.34
152. D35V  -0.836 ± 0.13
153. F53R  -0.837 ± 0.18
154. I32K  -0.847 ± 0.32
155. R17I  -0.853 ± 0.23
156. E26R  -0.861 ± 0.29
157. E4R  -0.867 ± 0.2
158. E16G  -0.868 ± 0.34
159. V19E  -0.893 ± 0.14
160. R6G  -0.894 ± 0.23
161. Q52F  -0.922 ± 0.25
162. G18M  -0.96 ± 0.36
163. L14V  -0.967 ± 0.34
164. F10V  -0.97 ± 0.36
165. S20R  -1 ± 0.38
166. E26K  -1.04 ± 0.42
167. K55P  -1.19 ± 0.5
